Measured values reported in the nanobody polyreactivity screen of Harvey et al. (2022).

Experiment: yeast display, Sf9 membrane polyspecificity reagent, FACS + sequencing; frameworks hold sequencing errors
Outline: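 A nanobody's polyreactivity label depends on the gate it was sorted from. Yeast display cells were stained with 10% biotinylated, detergent-solubilized Sf9 membrane reagent for 1 hour at 4 °C, enriched on streptavidin microbeads and sorted by FACS. The low and high (top ~1%) gates were set on anti-HA fluorescence for expression and streptavidin fluorescence for reagent binding.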

| Sequence | polyreactivity (PSR sort gate) |
| --- | --- |
| QVQLVESGGGLVQAGGSLRLSCAASGRIFNQYAMGWYRQAPGKERELVAAISRRGGSTYYADSVKGRFTISRDNAKNTVYLQMNSLKPEDTAVYYCAAVGGYASYFHLYYYWGQGSQVTVSS | high polyreactivity |
| QVQLVESGGGLVQAGGSLRLSCAASGRIFNQYGMGWYRQAPGKERELVASITLTDGSTYYADSVKGRFTISRDNAKNTVYLQMNSLKPEDTAVYYCAARISGGSTFRYQRMYYWGQGTQVTVSS | low polyreactivity |
| QVQLVESGGGLVQAGGSLRLSCAASGRIFNRNAMGWYRQAPGKERELVASISSGGRTNYADSVKGRFTISRDNAKNTVYLLMNSLKPEDTAVYYCAAKSPRILLDYWGQGTQVTVSS | low polyreactivity |
| QVQLVESGGGLVQAGGSLRLSCAASGRIFNRNAMGWYRQAPGKERELVASISSGGRTNYADSVTGRFTISRDNAKNTDYLQMNSLKPEDTAVYYCAAKSPRILLDYWGQGTQVTVSS | low polyreactivity |
| QVQLVESGGGLVQAGGSLRLSCAASGRIFNRYAMGWYRQAPGKEREFVARITGSGGRTYYADSVKGRFTISRDNAKNTVYLQMNSLKPEDTAVYYCARDRGYQSGYDYWGQGTQVTVSS | high polyreactivity |
| QVQLVESGGGLVQAGGSLRLSCAASGRIFNRYAMGWYRQAPGKERELVAAISSRGGSTFYADSVKGRFTISRDIAKNTVYLQMNSLKPVDTAVYYCATAWHRGVRGRTSGAFDYWGQGTQVTVSS | high polyreactivity |
| QVQLVESGGGLVQAGGSLRLSCAASGRIFNRYTMGWYRQAPGKERELGAAISKSGGSTYYADSVKGRFTISRDNAKNTVYVQMNSLKPEDTAVYDCAAPPRLYRWHGGDYWGQGTQVTVSS | high polyreactivity |
| QVQLVESGGGLVQAGGSLRLSCAASGRIFNSNTMGWYRQAPGKERELVAAIRGSGGSTYADSVKGRFTISRDNAKNTVYLQMNSLKPEDTAVYYCAASPRRWYTPDAVSTYRMYYWGQGTQVTVSS | high polyreactivity |
| QVQLVESGGGLVQAGGSLRLSCAASGRIFNSNTMGWYRQAPGKERELVAAITYSGGSTYYADSVKGRFTISRDNAKNTVYLQMNSLKPEDTAVYYCAADFWEYDGPWYANDYDSWGQGTQVTVSS | low polyreactivity |
| QVQLVESGGGLVQAGGSLRLSCAASGRIFNSYAMGWSRQAPGKERELVAAISSGGSTYYADSVKGRFTISRDNAKNTVYLQMKRLKPEDTAVYYCAARIWNGRGRKLGYGYDYWGQGTQVTVSS | low polyreactivity |
| QVQLVESGGGLVQAGGSLRLSCAASGRIFNSYAMGWYIQAPGKERELVAAISSGGSTYYADSVKGRFTISRDNAKNTVYLQMNSLKPEDTAVYYCAARIWTGRGRKLGYGYDYWGQGTQVTVSS | low polyreactivity |
| QVQLVESGGGLVQAGGSLRLSCAASGRIFNSYAMGWYRQAPGKERELVAAINWTDVSTYYADSVKGRFTISRDNAKNTVYLQMNSLKPEDTAVYYFAAVRWGSYTLSDDYWGQGTQVTVSS | low polyreactivity |
| QVQLVESGGGLVQAGGSLRLSCAASGRIFNVNVMGWYRQAPGKERELVASINWSGTSTYYADSVKGRFTISRDNAKNTVYLQMNSLKPEDTAVYYCAADLALYNTLYLTLPDYYWGQGTQVTVSS | low polyreactivity |
| QVQLVESGGGLVQAGGSLRLSCAASGRIFNWYVMGWYRQAPGKERELVAAINSGGITKYADSVKGRFTISRDNAKNTVYLQMNSLKPEDTAVYYCAAYYRRYDYDYWGQGTQVTVSS | high polyreactivity |
| QVQLVESGGGLVQAGGSLRLSCAASGRIFNYNAMGWYRQAPGKERELVAAITRSTGNTYYADSVKGRFTISRDNAKNTVYLQMNSLKPEDTAVYYCAAAYAYWRKYDYWGQGTQVTVSS | high polyreactivity |
| QVQLVESGGGLVQAGGSLRLSCAASGRIFNYYAMGWSRQAPGKERELVAAIRTGGSTYYADSVKGRFTISRDNAKNTVYLQMNSLKPEDTAVYYCARLVYYSSPYGYWGQGTQVTVSS | high polyreactivity |
| QVQLVESGGGLVQAGGSLRLSCAASGRIFNYYAMGWYRQAHGKERELVAVITYSAGRTYYADSVKGRFTISRDNAKNTVYLQMNSLKPEDTAVYNCNADGWVSVSKHYYYWGQGTQVTVSS | low polyreactivity |
| QVQLVESGGGLVQAGGSLRLSCAASGRIFPAYAMGWYKQAPGKERELVASIRRGGITYADSVKGRFTISRDNAKNTVYLQMNSLKPEDTAVYYCNADYRGWGYHMDYWGQGTKVTVSS | low polyreactivity |
| QVQLVESGGGLVQAGGSLRLSCAASGRIFPAYAMGWYRKAPGKETELVAAISWRSGSTYYAHSVKGRFTISRDNAKNTVYLQMNSLKPEDTAVYYCAAEYDWPGYDYWGQGTQVTVSS | high polyreactivity |
| QVQLVESGGGLVQAGGSLRLSCAASGRIFPDNTMGWSRQAPGKERELVAVITYSGGSTYYADSVKGRFTISRDNAKNTVYLQMNSLKPEDTAVYYCAKTLGSQNYDFDYWGQGTQVTVSS | low polyreactivity |
| QVQLVESGGGLVQAGGSLRLSCAASGRIFPDNTMGWYRQAPGTERELVAAITSSGGSTYYADSVKGRFTISRDNAKNTVYLQMNSLKPEDTAVYYCAAAVKRGYAQSFISDGYGYWGQGTQVTVSS | low polyreactivity |
| QVQLVESGGGLVQAGGSLRLSCAASGRIFPFNAMGWYRQAPGKEREFVAAIRLSGTRTYYADSVKGRFTISRDNAKNTVYLQMNSLKPEDTAVYYCAAKYSGHYYNYDYWGQGTQVSVSS | high polyreactivity |

| Sequence | polyreactivity (PSR sort gate) |
| --- | --- |
| QVQLVESGGGLVQAGGSLRLSCAASGRIFPFYDMGWYRQAPGKERELVAAISTSGGSTYYADSVKGRFTISRDNAKNTVYLQMNSLKPEDTAVYYCNAQRALRSTYDSWGQGTQVTVSS | low polyreactivity |
| QVQLVESGGGLVQAGGSLRLSCAASGRIFPGNAMGWYRQAPGKESELVAAISKSGGSTYYADSVKGRFTISRDNAKNTVYLQMNSLKPEDTAVYYCAKLYYPVSDQYDYYYWGQGTQVTVSS | low polyreactivity |
| QVQLVESGGGLVQAGGSLRLSCAASGRIFPGNPMGWYRQATGQERELVAGISFSGGRTYYADSVKGRFTISRDNAKNTVYLQIISLKPEDTAVYYCATKYQQHCWSYDYWGQGTQVTVSS | low polyreactivity |
| QVQLVESGGGLVQAGGSLRLSCAASGRIFPGNTMGWYRQAPGKERELVAAISSSTGNTYYADSVKGRFTISRDNAKNTVYLQMNSLKPEDTAVYYCAARTRQISIVGYNYWGQGTQVTVSS | high polyreactivity |
| QVQLVESGGGLVQAGGSLRLSCAASGRIFPGYAMGLYRQAPGKERELVAAISKGGGSTSYADSVKGRFTISRDNAKNTVYFQMNSLKPEDTAVYFCAARQAWRWTYDYWGQGTQVSVSS | high polyreactivity |
| QVQLVESGGGLVQAGGSLRLSCAASGRIFPGYAMGWYRPAPGKERELVAAISKSGVSTYYADSVKGRFTISCDNAKNTVYLQMNSLKPEDTAVYYCAAVSYSYFSRGYRTFQLAYWGQGTQVTVSS | high polyreactivity |
| QVQLVESGGGLVQAGGSLRLSCAASGRIFPHYAKGWYRQAPGKERELVAAISSGGRTNYADSVKGRFTISRDNAKNTVYIQMNSLKPEDTAVYYYAVDDYVYEMDYWGQGTQVTVSS | high polyreactivity |
| QVQLVESGGGLVQAGGSLRLSCAASGRIFPISAMGWYRQAPGKERVLVAAIDSGGSTTYADSVKGRFTISRDNEKNTVYLQMNSLKPEDSADYYCAAKGAYPYWYPVGYRYDYWGQGTQVTVSS | low polyreactivity |
| QVQLVESGGGLVQAGGSLRLSCAASGRIFPIYAMGWYRQAPGKERELVAAISRTDGTTYYADSVKGRFTISRDYANNTVYLQMNSLKPEDTAVYYCAADYLRAPYYQYEYWGQGTQVTVSS | low polyreactivity |
| QVQLVESGGGLVQAGGSLRLSCAASGRIFPKYAMGWYRQAPGKERELVAAIRWSGGNTYYADSVKGRFTISRDNAKNTVYLQMNSLKPEDTAVYYCAATPYVSKYYYFGHDYWGQGTQVTVSS | high polyreactivity |
| QVQLVESGGGLVQAGGSLRLSCAASGRIFPNNAMGWYRQAPGKERELVAAITSIGGSTYYADSVKGRFTISRDNAKNTVYLQMNSLKPEDTAVYYCAARWERFVPTGRFSYYYYYWGQGTQVTVSS | high polyreactivity |
| QVQLVESGGGLVQAGGSLRLSCAASGRIFPPYAMGWYRQAPGKERELVAAISSSTTSTYYADSVKGRFTISRDNAKNTVYLQMNSLKPEDTADYYCAATGKGSYGYWGQGTQVTVSS | low polyreactivity |
| QVQLVESGGGLVQAGGSLRLSCAASGRIFPQNAMGWYRQAPGKERELVAAITSDGAITYYADSVKGRFTISRDNAKNTVYLQMNSLKPEDTAVYYCATQGRYYDYDYWGQGTQVTVSS | low polyreactivity |
| QVQLVESGGGLVQAGGSLRLSCAASGRIFPQYAMGWYRQAPGKERELVAGITSVGSTYYADSVKGRFTISRDNAKTTVYLQMNSLKPEDTAVFYCAAVPSRYVRANRRTYRYYYWGQGTQVTVSS | high polyreactivity |
| QVQLVESGGGLVQAGGSLRLSCAASGRIFPRNAMGWYRQAPGKERELVAAISQSGTSTYYADSVKGRFTISRDNAKNTVYLQMNSLKPEDTAVYYCAAVSSSGYYWGQGTQVTVSS | low polyreactivity |
| QVQLVESGGGLVQAGGSLRLSCAASGRIFPRNTMGWYRQAPGKQRELVAAISTRGGSTYYADSVKGRFTISRDNAKNTVYLQMNSLKPEDTAVYYCAAGRRFPAIYSTGNYWGQGTQVTVSS | high polyreactivity |
| QVQLVESGGGLVQAGGSLRLSCAASGRIFPRYAMGWYRQAPGKERELVAAITSSGTSTYYADSVKGRFTISRDNAKNTVYLQMNSLKPEDTAVYYCNAVKYARWGYDYWGQGTQVTVSS | high polyreactivity |
| QVQLVESGGGLVQAGGSLRLSCAASGRIFPRYGMGWYRQAPGKERELVADITSSGSTYADSVKGRFTISRDNAKNTVYLQMNSLKPEDTAVYYCNALYRRLSYSWRYRQLYDYWGQGTQVTVSS | high polyreactivity |
| QVQLVESGGGLVQAGGSLRLSCAASGRIFPRYVMGWYRQAPGKERELVAAITYRGGSTSYADSVKGRFTISRDNAKNTVYLQMNSLKPEDTAVYYCNAKSLYYNYAYDYWGQGTQVTVSS | high polyreactivity |
| QVQLVESGGGLVQAGGSLRLSCAASGRIFPTNAMGWYRQAPGKERELVASIDSGGSTKYADSVKGRFTISRDNAKNTVDLQMNSLKPEDTTVYYRALQVLNYDYWGQGTQVTVSS | low polyreactivity |
| QVQLVESGGGLVQAGGSLRLSCAASGRIFPTNAMGWYTQAHGKEREFVSAITWRGGSTYYADSVKGRFTISRDNAKNTVYLQMNSLKPEDTAVYYCAATGHIVFFRADDYGYWGQGTQVTVSS | low polyreactivity |
